Measurements: the domain aggregation screens of Martell et al. (2025)

experiment: soluble fraction after stress (log2 fold change); higher = more stays soluble; pooled small domains, quantitative proteomics; conditions: stress: 75 degC
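Note: 20 min heating vs room temperature control held 20 min.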

Compared with “HMKDLTIRQQQFLNYIKDHLSLTGFPPTRSDIANEMGFKSPNAAEDHLRALARKGAIEIVPGTSRGIRLP”, “HMKDMKISTKNLLQELAKNYPDQTSFRKNVIETTARAMGYTGKDFYPLLTTDNRVKIGTYDLATFLRSI” is lower in “soluble fraction (log2)” value: -0.419 for the first, -0.969 for the second.

Compared with “HMKDNPNETFERIAGKITRTLRSGPVRIQQLDLLFSESAGKVVDVLRAMAENGEVLIKDDTIQLNGNN”, “HMKDTFHNLSEEKRERIIRAALGEFAASGYEKATLDGVVQAAGISKGGLYEYISSKEDLFRYLLEYSYD” is lower in “soluble fraction (log2)” value: -0.0108 for the first, -1.82 for the second.

Going from “HMKDTNENLMKMLALLIHAAKIDENYSDEEKELIVNFAEMSSKENLNREQILSIIKSAEEYE” to “HMKEADVRKNEILDAAGILFSEKGYDNTSVTDIMNAVGFAKGTLYHHFKSKEDIMDALIKRQTD”, the “soluble fraction (log2)” value rises from -1.24 to -0.125.

“HMKEAISIYPNPVKDILTIRGMDETSGVSFKLYDVTGNLLLESTHSELDMSGLNRGVYFLDIAGDVRKVVK” and “HMKEEDLPREYTDILGNSVHERLNIMIHDIIEHSQDKPEVAMSPEREEAMHGLRRWMFDHVYH” are within 0.2 log units of each other in “soluble fraction (log2)” value: -0.342 for the first, -0.168 for the second.

Compared with “HMKEEVEILGGKATIYTNDYGVWQFRLWLTTDNKYVRKSLRTKVKDYAITEGEKLYIQIRSDIEKGIKYY”, “HMKEEVSVPDIKGMTYEEAEAKLAKYDLEIEKGETVKASEQYEEGQISSQEPEAGSKVKEGSTIVVDVVE” is higher in “soluble fraction (log2)” value: -1.13 for the first, 0.185 for the second.

First: HMKEFSFNGGKVIMNYEADRIQIKHDSRPNQEVITLMKRNGFKWSPTNQAWQRQITGNAIYVTKNLLKS
Second: HMKEGGGYGQLRLKEAAIQHAFDLQNALQFIAERGYQAHENTTLKEAANALNLKPIELLELLKSSQ
The “soluble fraction (log2)” value of the first is lower: -2.33 for the first, 0.0627 for the second.

Compared with “HMKEIDVPNVVGASENAARKLLESYGFQVEVQWENGERVDNAVVKSYSPNGSAKSGSTVTIVLGT”, “HMKEINFTIEESAKGRLDKVIAENVADLTRSQVQSLIKKGQILVNDAPTTNRYQVKPNDQVIIKLPDPV” is higher in “soluble fraction (log2)” value: 0.0998 for the first, 0.396 for the second.

Going from “HMKEKLGEFENVFLSVDELQKLKSKLGAETESYIERLSNYIASSGKKYKSHYATILSWTQKDTK” to “HMKELASKYEISEYMKFLIENLDKSNFFYPIEKRESMINNIFSIYSKADLSKKELNMLWGMLKKLR”, the “soluble fraction (log2)” value falls from -0.88 to -2.31.

First: HMKELTELIEKIKLRRLELGLSYQELSDLTGINKSTLQRYETGFIKKVPINQVQIIAKALNVTPGYLMG
Second: HMKEMTAKQIDMFSDKLSKLESFQSHYIADAGVSVTEYKQAIAAKLQDQFYVEAWGKYLADVGFT
The “soluble fraction (log2)” value of the first is lower: -0.72 for the first, -0.393 for the second.

First: HMKEPIYQTILSALILELNTNHFRKNDPFYSESELRKKYQVSSTTVVRVLNMLADQGYIYRIQGKGSFVSK
Second: HMKESFAQLFSLLTPTEQKVAALISQGFSNKDIAAKMFISLSTVKTHTNHIFAKMGVANRNALVAKVNN
The “soluble fraction (log2)” value of the first is lower: -2.62 for the first, -1.46 for the second.

Compared with “HMKESRFDYDAVLLYSDKDSITEVKDAVQHLTKEFGSVFTTKKIPEKATFGKLFRIEKGEVNIIEDN”, “HMKESRLFRILYYLLQHKKATAPELAEEFEVSVRTIYRDIDYISSAGVPIYATQGKDGGIAILDSF” is lower in “soluble fraction (log2)” value: 0.367 for the first, -0.777 for the second.

Compared with “HMKETLSINSTDFEVRRSSRRKRISVGFDTGTETFFIAAPTKLAGTDILRILGPQISRLMDRLT”, “HMKEVDERPWGKYEVLLDAPDVKVKRITVNPGQRLSYQYHEKRAEVWTVVSGILTIILEDDKLFRG” is higher in “soluble fraction (log2)” value: -2.22 for the first, 0.17 for the second.

Compared with “HMKFIPPSLEEARAYFVEKGSSEPEAEKFVNHFDSIGWKVGRARTPMKKWKSAANNWIANNREWNQ”, “HMKFKDYYAALGIDRNADLEQIKKAYRKLARQYHPDVSKAPDAEARFKDAAEAYATLKNPEKRAAYDELGS” is higher in “soluble fraction (log2)” value: -0.543 for the first, 0.0895 for the second.

First: HMKFLHLADLHLGKRVNGFSMLEDQAYILRQILTILDDERPDGVLIAGDVYDKPVPPTEAVELLD
Second: HMKFLYQKAREEIISLIQDGEIKPSEKIMPERELSELLGYNRMTIKKAINSLVAEGVLMKKRGAGTFLLG
The “soluble fraction (log2)” value of the first is lower: -0.859 for the first, -0.292 for the second.

Compared with “HMKFLYQQVYQDIKDKITSAQYQFGDLLPSEREIGEEYHVDRTTVRKAFSLLVDEGLVEKRAGKGSVVIS”, “HMKFTELEQLMLKREINTLADIARVLKTTPQAVSNWKARDQIPYHIVAKINASINKDSNDSSLSI” is higher in “soluble fraction (log2)” value: -0.74 for the first, -0.328 for the second.

First: HMKFTSEKDISLLELVKAKMGFVSNTKARNVIKIGQIMVSGKVIKIPSTLIKPGTEVELARRV
Second: HMKFYKMIDESDEKIENPEIMIFQIIELVSSTTYSAIINKEPVDVETLKPYLYQTIRTIIINHQS
The “soluble fraction (log2)” value of the first is lower: -1.76 for the first, 0.363 for the second.

Compared with “HMKGEKVTKIELSNFIKFLINDLENKGFFNPPEKKDSMIDNIYSIYNKMTLTKKELNMLWGMHKKLK”, “HMKGERHNKILELIQQHAIDRQEDLLRYLKEAGFQVTQATVSRDIRELHLVKVAAGGGQYRYVSAAAAS” is higher in “soluble fraction (log2)” value: -1.9 for the first, -1.04 for the second.

First: HMKGIHDYITKDGLRVVKVHYSADPDKDVTTVEGKKWMAKALLGYPGGLEGAKWRREMEIDFNA
Second: HMKGILVPASSIISDGDKNYVWTVEKGKAKKVEVTLGNADAENQEISSGLTKDSKVITNPTDSLKDGQEV
The “soluble fraction (log2)” value of the first is lower: -0.167 for the first, 0.228 for the second.

Compared with “HMKGKDLQDAVVTVVGGAENWNAIRAWAQASASDSEKREINAAFQSGKLMATMMAERLALAYQQSG”, “HMKGKITTNWVSLTSDLGWLRSELYSSGSVLEERISNEGLIELHLENFQNDLIKLLEVEGFDLIKE” is lower in “soluble fraction (log2)” value: 0.182 for the first, -3.18 for the second.

Compared with “HMKGQLVVFPNPASSNDMVRFNKNISFSIFDITGHLVDTKRNVNELSVGNLEAGTYILRTEQGDVLRMVI”, “HMKGRPTTAIITDERTNLRSGPGATNKTIAQAGAGEKLAIIDEKDGWYQVSRAGINGWVAGWVIDVAW” is lower in “soluble fraction (log2)” value: -1.45 for the first, -1.83 for the second.

“HMKGSIFLDEATKMVDNSALKSLNTFLEEYARETNNQIFLISHQETPAEVTQIKLKKVGGETSYE” and “HMKGSPFSQLPKEKKKRILQAAIEVFAQNDYKHASTDEIASRAGISKGLLFYYFHDKKTLYFYLGEYLKR” are within 0.2 log units of each other in “soluble fraction (log2)” value: 0.154 for the first, 0.118 for the second.

First: HMKGTLPEMITSREEVVLKFMVNGWDAKRIASELDISVLTVRKHIANIYEKLHVQSKAEIISMAHQQKWFN
Second: HMKGTSIELIVPQDIAGLRLDQVLAKLLPQWSRSRLQSWINEKHITVNGQTTTAKQKLWGNETIQIIPPI
The “soluble fraction (log2)” value of the first is lower: -3.27 for the first, -1.45 for the second.

Compared with “HMKHEFSEEWLDWIKSNIADGQNKNGLFKVLLNHGYAYDAVREVMQYEPTVPLDELVDPLRA”, “HMKHFNDEELDGFAGLKSDDYNEEQVELFRNIFEELHPDEIIEWTESLRRRGIEIPSSLKDEVVMMIN” is higher in “soluble fraction (log2)” value: -0.143 for the first, 0.29 for the second.

First: HMKHFTYEEMELMSIYDPGTREGLIANLEEMRGYLEPDETELRELTDSALEKLRELSDADYEQLELI
Second: HMKHMTMYEAAKIAKEVGAPKLWLTHYSPSMTRPEEFMDDVRKIFPAAYAAKDGWTMELNFDEG
The “soluble fraction (log2)” value of the first is higher: -0.516 for the first, -0.74 for the second.

Compared with “HMKHRTQMDIQQLPAIEGKGGFEYKISIIHLSTRIKYSEIHDNYNTTTIAKVYENAIERLPPF”, “HMKHSLNHLGLWLLPELSRRDIQLREFAHLLGTTSQGLSDLLRGQRFSSHTLAQWQLRFQEKLDEIDQAS” is higher in “soluble fraction (log2)” value: -2.39 for the first, -1.99 for the second.

Compared with “HMKHTVSVDRLQPGVFVSLGGLSWLDHPFLLNRFRLTDHDQIKVLRSLGVKEIEWDPTRSTAQPLPE”, “HMKIAPRTAENQQLRKMILEIYTTSKKRVGPAKVRRMLLRDYGISISIGRVYRLMSTMNLPKMS” is higher in “soluble fraction (log2)” value: -1.04 for the first, 0.0421 for the second.

Compared with “HMKIDLPIWLNKKAWEAWVEYKKERKQKLTPSIIKFQLRILEKNKEDHPEIIRNSITNGWTGLFPLK”, “HMKIEDSNTIKLKANQAYKTHYYSEAIKLYDELLTKYEPNSEAIKLNLAHAHFKAKGFAAASKLYT” is higher in “soluble fraction (log2)” value: -1.81 for the first, 0.0472 for the second.

“HMKIELTDQQKSLVVDEWNKGEANPPSLLQLIRLAYPDQPHLDGRSKEGKAVKAFLATRDINPLA” and “HMKIETVENPLLERTEISALFDSKSGSLTRKEAIDLISKKARIDSSTVYAIKLSNSSGSTRIIGLFY” are within 0.2 log units of each other in “soluble fraction (log2)” value: 0.0244 for the first, 0.16 for the second.

Going from “HMKIIDDIQEFAGVTKTQNTFFHIFNHLHQNGKQLILTSDRAPVMLQGMEERLLTRFKWGLVAELE” to “HMKIKKIWFDGDYIYGMDERNNTYRQSLLWYSKLRNASAEERERYTFSTIGIHWRELDEDVSFESF”, the “soluble fraction (log2)” value falls from 0.285 to -3.03.

First: HMKIKLQATEQQRKTLDELYVQLKKLEPTSKEDLSLLYRLENPHLVSKQEAQGLISIAIGRVGSLAIEQQ
Second: HMKINKQHLAFQIFGIRAKLGLSMEQFGELLGANKSSVSGWERGTVVPSSQRLKKIAELGKISLAELLTP
The “soluble fraction (log2)” value of the first is higher: -0.44 for the first, -3.01 for the second.

“HMKINVQETEVYRYLLERADRLYSMILGEERENLMERTRFFEKEVAKASLPHLPKLYDEFSIYLDRLERG” and “HMKIPYGELIKLLNAAAPKLQDAQGWMDMEAAGQFIGSRWSYLDYGFKDWPDSFKTVHGLEIQGQRMRLA” are within 0.2 log units of each other in “soluble fraction (log2)” value: -0.393 for the first, -0.577 for the second.

First: HMKIQISGSQRIDENVVVKVAGLSFPQSLLSLEPGQIESKLMQELPVQEVSVQRRLLPPGLDIQLVE
Second: HMKIQTYEDFRNAYPDIQGSLFGSAERYKTDLDWGDVAAKYDADEELKNVRNIFQLVRRYEQKYS
The “soluble fraction (log2)” value of the first is lower: -0.0996 for the first, 0.612 for the second.

Going from “HMKISIPQEYFEIYNVLKQRPMHINEISKILKKPVSEISGTISLMEIEGYITKLTTDQYVLKKI” to “HMKITADQEIETAINYFKKSIAEKGWKGVNPDEFKQMNDYLSETFGYSATIKFQKALDEQGLMVDE”, the “soluble fraction (log2)” value rises from -0.473 to -0.0068.

Compared with “HMKITININIETLSHHIKQSGVPLGRLQESVPDYNEIVTGNKSPTYQQLEKISKLIRVPLGLLVIESPL”, “HMKITLAESVYERIRRDIITNQLKPGEKINIRELSTRYEASETPIRLALNRLASENIIEHFPRQGMRVK” is lower in “soluble fraction (log2)” value: 0.039 for the first, -1.4 for the second.

Compared with “HMKIVPEPGTVLIREYQEERHEVTVTLDGAFDYKGTLYSSLSEIARLITGTRWSGPVFFGLRS”, “HMKIYDQVVDRIKDRISKGDMPQGSALPPERQLIDELNVSRSSLREGFRILEMMGLIESIPGKGRFVRTSR” is lower in “soluble fraction (log2)” value: -0.369 for the first, -0.607 for the second.

Compared with “HMKKAIYPGSFDPLTLGHIDIIKRASGIVDELVVGVLNNSAKNSLFSLDERVSMIEEMTKDLPNVSVTSFD”, “HMKKEDFLEILRDYLKKGFSEDEVMDILRDYEEYFVDGIIEGKSEIEIIQSLGSPKEIANELLAES” is lower in “soluble fraction (log2)” value: 0.16 for the first, -0.631 for the second.

First: HMKKEQVIVPNVVGDTYDVALRKLTDAKLKVGETFPADREGHQGVIEKQSPAAGETVDEDTPVALFFKV
Second: HMKKERITWDERLERFAKYITENESLPYPSSKEHAWFEENKALYDAGELESVRAQSFSFLLKILRRMNLI
The “soluble fraction (log2)” value of the first is higher: 0.0903 for the first, -0.787 for the second.

Going from “HMKKGATVSGVIVEKTKKSLIIDLGAKTEGVVADKEFEFAIDFVKELKKGDEVKAIVISTDNDKGQVVLSL” to “HMKKHALFTLFKHHNANGTTVWYARFWDDATQRYAIARSTGVLAQGKRERHDEAITVAREMASSIQFS”, the “soluble fraction (log2)” value falls from -0.414 to -2.81.

With “HMKKHAPSLMRQIRRELKEGKSPESLLSKAKLISDSYYRSLSFYLLIPYLSPNSKQFQEAISLAGKDID” the “soluble fraction (log2)” value was 0.175.
